Assay results: US20240400638A1, “COMBINATION OF RELAXIN AND VASOPRESSIN ANALOGUES FOR TREATMENT OF RENAL DISORDERS OR CONDITIONS” (River 2 Renal Corp., priority 2021, published 2024)
Numbered stars: 1 amine (or outer) side, 2 acyl side, 3 side chain; on linkers, the order of the positions; unused ones are H or OH. Square brackets hold non-standard residues; d marks the D form. Side chains are listed from the residue outwards. * marks the point of attachment. TTDS = 4-[3-[2-[2-(3-aminopropoxy)ethoxy]ethoxy]propylamino]-4-oxo-butanoyl; γGlu = O=C(O)[C@H](CCC(=O)[*:2])N[*:1]; Stearoyl = CCCCCCCCCCCCCCCCCC(=O)*; Palmitoyl = CCCCCCCCCCCCCCCC(=O)*; Cit = NC(=O)NCCC[C@H](N)C(=O)O; αMeK = C[C@](N)(CCCCN)C(=O)O; hLys = NCCCCC[C@H](N)C(=O)O; AEEA = NCCOCCOCC(=O)O; Aib = CC(C)(N)C(=O)O

B1: Relaxin peptide analogue of SEQ ID NO: 45 (peptide)
peptide: Ac-LEGREKVRAK(Ac)I[Aib][Aib]EGK([AEEA-AEEA-AEEA-AEEA-AEEA-γGlu-γGlu-γGlu-Palmitoyl])STFS[αMeK]RAK(Ac)-NH2
SMILES: CCCCCCCCCCCCCCCC(=O)N[C@@H](CCC(=O)N[C@@H](CCC(=O)N[C@@H](CCC(=O)NCCOCCOCC(=O)NCCOCCOCC(=O)NCCOCCOCC(=O)NCCOCCOCC(=O)NCCOCCOCC(=O)NCCCC[C@H](NC(=O)CNC(=O)[C@H](CCC(=O)O)NC(=O)C(C)(C)NC(=O)C(C)(C)NC(=O)[C@@H](NC(=O)[C@H](CCCCNC(C)=O)NC(=O)[C@H](C)NC(=O)[C@H](CCCNC(=N)N)NC(=O)[C@@H](NC(=O)[C@H](CCCCN)NC(=O)[C@H](CCC(=O)O)NC(=O)[C@H](CCCNC(=N)N)NC(=O)CNC(=O)[C@H](CCC(=O)O)NC(=O)[C@H](CC(C)C)NC(C)=O)C(C)C)[C@@H](C)CC)C(=O)N[C@@H](CO)C(=O)N[C@H](C(=O)N[C@@H](Cc1ccccc1)C(=O)N[C@@H](CO)C(=O)N[C@@](C)(CCCCN)C(=O)N[C@@H](CCCNC(=N)N)C(=O)N[C@@H](C)C(=O)N[C@@H](CCCCNC(C)=O)C(N)=O)[C@@H](C)O)C(=O)O)C(=O)O)C(=O)O
B2: Relaxin peptide analogue of SEQ ID NO: 42 (peptide)
peptide: Ac-LEGREKVRAK(Ac)I[Aib][Aib]EGK([AEEA-AEEA-AEEA-AEEA-γGlu-γGlu-γGlu-Palmitoyl])STWS[αMeK]RAK(Ac)-NH2
SMILES: CCCCCCCCCCCCCCCC(=O)N[C@@H](CCC(=O)N[C@@H](CCC(=O)N[C@@H](CCC(=O)NCCOCCOCC(=O)NCCOCCOCC(=O)NCCOCCOCC(=O)NCCOCCOCC(=O)NCCCC[C@H](NC(=O)CNC(=O)[C@H](CCC(=O)O)NC(=O)C(C)(C)NC(=O)C(C)(C)NC(=O)[C@@H](NC(=O)[C@H](CCCCNC(C)=O)NC(=O)[C@H](C)NC(=O)[C@H](CCCNC(=N)N)NC(=O)[C@@H](NC(=O)[C@H](CCCCN)NC(=O)[C@H](CCC(=O)O)NC(=O)[C@H](CCCNC(=N)N)NC(=O)CNC(=O)[C@H](CCC(=O)O)NC(=O)[C@H](CC(C)C)NC(C)=O)C(C)C)[C@@H](C)CC)C(=O)N[C@@H](CO)C(=O)N[C@H](C(=O)N[C@@H](Cc1c[nH]c2ccccc12)C(=O)N[C@@H](CO)C(=O)N[C@@](C)(CCCCN)C(=O)N[C@@H](CCCNC(=N)N)C(=O)N[C@@H](C)C(=O)N[C@@H](CCCCNC(C)=O)C(N)=O)[C@@H](C)O)C(=O)O)C(=O)O)C(=O)O

biological target: T1, human RXFP1 (human, UniProt Q9HBX9 1-757); test: cell-based or functional assay
T1 sequence (looked up): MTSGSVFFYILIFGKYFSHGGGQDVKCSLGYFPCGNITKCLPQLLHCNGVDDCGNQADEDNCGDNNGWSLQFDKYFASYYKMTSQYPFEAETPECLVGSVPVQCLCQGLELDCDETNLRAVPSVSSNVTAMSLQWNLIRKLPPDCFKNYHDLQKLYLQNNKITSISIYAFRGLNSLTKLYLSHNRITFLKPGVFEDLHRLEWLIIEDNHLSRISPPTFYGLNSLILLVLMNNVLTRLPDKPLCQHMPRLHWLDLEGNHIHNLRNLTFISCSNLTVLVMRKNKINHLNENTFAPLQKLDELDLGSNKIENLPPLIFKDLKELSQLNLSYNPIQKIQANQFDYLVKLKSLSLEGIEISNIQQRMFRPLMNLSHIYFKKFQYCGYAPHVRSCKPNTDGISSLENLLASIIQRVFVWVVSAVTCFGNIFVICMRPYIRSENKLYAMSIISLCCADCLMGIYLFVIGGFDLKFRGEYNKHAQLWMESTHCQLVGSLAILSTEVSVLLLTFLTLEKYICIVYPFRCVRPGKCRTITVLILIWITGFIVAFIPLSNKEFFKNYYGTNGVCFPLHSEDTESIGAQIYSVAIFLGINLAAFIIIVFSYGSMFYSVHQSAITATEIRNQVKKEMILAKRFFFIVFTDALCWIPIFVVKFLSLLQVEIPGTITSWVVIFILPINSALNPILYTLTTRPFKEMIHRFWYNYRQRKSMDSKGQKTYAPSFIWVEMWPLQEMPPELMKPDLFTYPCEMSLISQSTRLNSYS

| Binder | EC50 (nM), OVCAR 5 cells (cAMP) | EMax, OVCAR 5 cells (cAMP) |
| --- | --- | --- |
| Ac-LEGREKVRAK(Ac)I[Aib][Aib]EGK([TTDS-TTDS-TTDS-γGlu-γGlu-γGlu-Palmitoyl])STW[dS]KRAK(Ac)-NH2 [Relaxin peptide analogue of SEQ ID NO: 44] | 2.2 nM | 97% |
| B1 | 0.45 nM | 96% |
| Ac-LEGREKVRA[Cit]I[Aib][Aib]EGK([TTDS-TTDS-TTDS-γGlu-γGlu-γGlu-Stearoyl])STFS[αMeK]RAK(Ac)-NH2 [Relaxin peptide analogue of SEQ ID NO: 56] | 0.15 nM | 91% |
| Ac-LEGREKVRAK(Ac)I[Aib][Aib]EGK([TTDS-TTDS-TTDS-γGlu-γGlu-γGlu-Palmitoyl])STFS[dK]RAK(Ac)-NH2 [Relaxin peptide analogue of SEQ ID NO: 36] | 3.6 nM | 93% |
| B2 | 1.5 nM | 84% |
| Ac-LEGREKVRAKI[Aib][Aib]EGK([TTDS-TTDS-TTDS-γGlu-γGlu-γGlu-Palmitoyl])STFS[αMeK]RAK(Ac)-NH2 [Relaxin peptide analogue of SEQ ID NO: 47] | 0.64 nM | 95% |
| Ac-LEGREKVRAK(Ac)I[Aib][Aib]EGK([TTDS-TTDS-γGlu-γGlu-γGlu-Palmitoyl])STWS[Aib]RKK(Ac)-NH2 [Relaxin peptide analogue of SEQ ID NO: 4] | 1.5 nM | 89% |
| Ac-LEGREKVRAK(Ac)I[Aib][Aib]EGK([TTDS-TTDS-γGlu-γGlu-γGlu-γGlu-Stearoyl])STWS[Aib]RKK(Ac)-NH2 [Relaxin peptide analogue of SEQ ID NO: 54] | 0.16 nM | 96% |
| Ac-LEGREKVRAQI[Aib][Aib]EGK([TTDS-TTDS-TTDS-γGlu-γGlu-γGlu-Palmitoyl])STFS[αMeK]RAK(Ac)-NH2 [Relaxin peptide analogue of SEQ ID NO: 48] | 0.45 nM | 96% |
| Ac-LEGREKVRAK(Ac)I[Aib][Aib]EGK([TTDS-TTDS-TTDS-γGlu-γGlu-γGlu-Palmitoyl])STWS[hLys]RAK(Ac)-NH2 [Relaxin peptide analogue of SEQ ID NO: 57] | 0.44 nM | 98% |
| Ac-LEGREKVRAK(Ac)I[Aib][Aib]EGK([TTDS-TTDS-TTDS-TTDS-γGlu-γGlu-γGlu-Stearoyl])STWS[Aib]RKK(Ac)-NH2 [Relaxin peptide analogue of SEQ ID NO: 58] | 0.08 nM | 98% |
| Ac-LEGREKVRAK(Ac)I[Aib][Aib]EGK([TTDS-TTDS-TTDS-γGlu-γGlu-γGlu-Palmitoyl])STW[Aib]KRAK(Ac)-NH2 [Relaxin peptide analogue of SEQ ID NO: 35] | 2.33 nM | 91% |
| Ac-LEGREKVRAK(Ac)I[Aib][Aib]EGK([TTDS-TTDS-TTDS-γGlu-γGlu-γGlu-γGlu-Stearoyl])STWS[Aib]RKK(Ac)-NH2 [Relaxin peptide analogue of SEQ ID NO: 51] | 0.1 nM | 98% |
| Ac-LEGRELVRAK(Ac)I[Aib][Aib]EGK([TTDS-TTDS-TTDS-γGlu-γGlu-γGlu-Palmitoyl])STWS[Aib]RRK(Ac)-NH2 [Relaxin peptide analogue of SEQ ID NO: 37] | 5.6 nM | 98% |
| Ac-LEGREFVRAK(Ac)I[Aib][Aib]EGK([TTDS-TTDS-TTDS-γGlu-γGlu-γGlu-Palmitoyl])STWS[Aib]RRK(Ac)-NH2 [Relaxin peptide analogue of SEQ ID NO: 39] | 8.7 nM | 93% |
| Ac-LEGREKVRAK(Ac)I[Aib][Aib]EGK([TTDS-TTDS-TTDS-γGlu-γGlu-γGlu-Palmitoyl])STFS[αMeK]RAK-NH2 [Relaxin peptide analogue of SEQ ID NO: 49] | 0.19 nM | 97% |

biological target: T1, human RXFP1; test: cell-based or functional assay; remark: another data set of the same source

| Binder | EC50 (nM), cAMP assay in OVCAR 5 cells | Emax, cAMP assay in OVCAR 5 cells |
| --- | --- | --- |
| Ac-VIKLSGRELVRAQIAISGMSTWSKRSL-NH2 [AcB7-33 C11.23S] | 929 nM | 70% |
| Ac-VIKLSGRELVRAQIAISGMSTWSKKKK-NH2 [KKKK(AcB7-29 C11.23S)] | 206 nM | 84% |
| H-VIKLSGRELVRAQIAISGMSTWSKRSL-NH2 [B7-33 C11.23S] | 1640 nM | 90% |
